PMC3494860 (The Journal of Cell Biology, 2012)

Target: T1, GST-PATJ (Drosophila melanogaster, UniProt Q9NB04 1-871)
T1 sequence (looked up): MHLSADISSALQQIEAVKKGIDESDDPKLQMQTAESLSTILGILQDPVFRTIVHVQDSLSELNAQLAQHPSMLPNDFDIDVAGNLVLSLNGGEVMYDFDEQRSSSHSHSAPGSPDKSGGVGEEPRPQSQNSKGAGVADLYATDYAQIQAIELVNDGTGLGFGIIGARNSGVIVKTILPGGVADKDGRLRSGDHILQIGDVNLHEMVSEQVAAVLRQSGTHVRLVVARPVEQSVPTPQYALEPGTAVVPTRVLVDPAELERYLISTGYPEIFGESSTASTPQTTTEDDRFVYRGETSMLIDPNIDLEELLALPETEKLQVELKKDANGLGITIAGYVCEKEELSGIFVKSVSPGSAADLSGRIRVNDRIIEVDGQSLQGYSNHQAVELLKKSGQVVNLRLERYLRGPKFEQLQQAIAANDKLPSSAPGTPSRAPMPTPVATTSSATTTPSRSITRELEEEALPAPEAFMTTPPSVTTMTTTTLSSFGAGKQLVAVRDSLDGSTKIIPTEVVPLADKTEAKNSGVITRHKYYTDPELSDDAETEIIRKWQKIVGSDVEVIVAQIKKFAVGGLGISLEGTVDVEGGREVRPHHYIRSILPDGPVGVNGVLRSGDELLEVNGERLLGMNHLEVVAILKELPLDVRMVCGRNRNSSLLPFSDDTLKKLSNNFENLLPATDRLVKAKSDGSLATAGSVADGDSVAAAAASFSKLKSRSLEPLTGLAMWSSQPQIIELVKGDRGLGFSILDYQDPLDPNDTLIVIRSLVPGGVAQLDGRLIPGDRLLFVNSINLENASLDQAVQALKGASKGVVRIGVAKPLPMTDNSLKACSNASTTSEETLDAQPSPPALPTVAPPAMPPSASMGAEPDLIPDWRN
Experiment: pull-down

B1: MBP-Sqh (natural protein, Drosophila melanogaster, UniProt P40423 1-174, looked up)
chain: MSSRKTAGRRATTKKRAQRATSNVFAMFDQAQIAEFKEAFNMIDQNRDGFVEKEDLHDMLASLGKNPTDDYLDGMMNEAPGPINFTMFLTLFGERLQGTDPEDVIKNAFGCFDEENMGVLPEDRLRELLTTMGDRFTDEDVDEMYREAPIKNGLFDYLEFTRILKHGAKDKDEQ
binding result: binds
